Results as given in PMC1931592 (BMC Pharmacology, 2007).

Assays:
Experiment in all cases: enzyme inhibition assay (fluorogenic substrate cleavage); one unit of active recombinant human caspase incubated with various concentrations of peptide inhibitor in 100 mM NaCl, 50 mM HEPES, 10 mM DTT, 1 mM EDTA, 10% glycerol, 0.1% CHAPS, pH 7.4, 37°C, 30 min; then 200 μM substrate (Ac-DEVD-MCA for caspases-3 and -7, Ac-IETD-MCA for caspase-8, Ac-LEHD-MCA for caspase-9); apparent Ki = IC50/(1+[S]/Km)
Settings in all cases: both partners purified
[1] = target: T1, Recombinant human caspase-7 (active) (human, UniProt P55210 1-303)
T1 sequence (P55210 whole entry): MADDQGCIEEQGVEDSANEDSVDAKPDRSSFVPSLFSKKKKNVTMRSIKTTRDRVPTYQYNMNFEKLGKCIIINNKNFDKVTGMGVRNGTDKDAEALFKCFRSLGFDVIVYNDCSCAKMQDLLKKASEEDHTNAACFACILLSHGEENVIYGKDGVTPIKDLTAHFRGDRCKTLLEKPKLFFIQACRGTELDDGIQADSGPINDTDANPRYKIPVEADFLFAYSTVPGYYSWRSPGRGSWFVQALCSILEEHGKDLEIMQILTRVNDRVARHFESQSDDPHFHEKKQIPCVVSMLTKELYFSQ

[2] = target: Recombinant human caspase-8 (active) (human, UniProt Q14790 1-479)
Chain of Recombinant human caspase-8 (active) (Q14790 whole entry): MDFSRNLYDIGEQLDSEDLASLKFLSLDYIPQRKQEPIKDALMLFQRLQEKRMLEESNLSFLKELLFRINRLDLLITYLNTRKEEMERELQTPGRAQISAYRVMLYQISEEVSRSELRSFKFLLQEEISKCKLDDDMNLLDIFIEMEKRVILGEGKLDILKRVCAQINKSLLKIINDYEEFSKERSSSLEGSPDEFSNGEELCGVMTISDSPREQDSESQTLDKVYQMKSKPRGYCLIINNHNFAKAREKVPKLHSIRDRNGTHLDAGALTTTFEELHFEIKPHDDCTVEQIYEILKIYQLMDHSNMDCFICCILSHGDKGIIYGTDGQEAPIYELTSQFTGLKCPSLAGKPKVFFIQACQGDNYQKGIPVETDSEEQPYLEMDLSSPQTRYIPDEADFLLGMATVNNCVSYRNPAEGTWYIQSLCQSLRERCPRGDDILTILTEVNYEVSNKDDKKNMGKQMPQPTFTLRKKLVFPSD

[3] = target: T2, Recombinant human caspase-3 (active) (human, UniProt P42574 1-277)
T2 sequence (P42574 whole entry): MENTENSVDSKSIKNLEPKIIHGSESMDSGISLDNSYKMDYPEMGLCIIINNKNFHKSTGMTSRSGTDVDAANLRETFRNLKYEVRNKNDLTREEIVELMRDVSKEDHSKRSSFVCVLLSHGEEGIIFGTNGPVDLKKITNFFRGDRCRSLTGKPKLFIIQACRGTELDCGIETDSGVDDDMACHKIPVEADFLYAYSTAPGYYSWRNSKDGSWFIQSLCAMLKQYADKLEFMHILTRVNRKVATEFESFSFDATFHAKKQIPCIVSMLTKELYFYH

[4] = target: T2, Recombinant human caspase-3 (active); remark: listed apart in the source
[5] = target: T1, Recombinant human caspase-7 (active); remark: listed apart in the source

Binder	Ki [1]	Ki [2]	Ki [3]	IC50 [4]	IC50 [5]
Ac-DMQD-aldehyde (SMILES CSCC[C@H](NC(=O)[C@H](CC(=O)O)NC(C)=O)C(=O)N[C@@H](CCC(N)=O)C(=O)N[C@H](C=O)CC(=O)O, source: bought: Peptide Institute, Inc (synthetic peptide)) [Ac-DMQD-CHO]	> 200 nM	> 200 nM	13.3 ± 0.3 nM	193 nM	
Ac-DNLD-aldehyde (tetrapeptide designed by the computational APF method; so far not known in any natural caspase substrate; source: synthetic peptide (synthesized by Peptide Institute, Inc)) [Ac-DNLD-CHO]		> 200 nM			
Ac-DEVD-aldehyde (source: bought: Peptide Institute, Inc (synthetic peptide)) [Ac-DEVD-CHO]	4.48 ± 0.21 nM	0.597 ± 0.095 nM			19.7 nM
Ac-DQTD-aldehyde (SMILES CC(=O)N[C@@H](CC(=O)O)C(=O)N[C@@H](CCC(N)=O)C(=O)N[C@H](C(=O)N[C@H](C=O)CC(=O)O)[C@@H](C)O, source: bought: Peptide Institute, Inc (synthetic peptide)) [Ac-DQTD-CHO]	21.8 ± 1.1 nM	9.75 ± 1.09 nM	1.27 ± 0.11 nM		
